Source: PMC3900572 (The Journal of neuroscience : the official journal of the …, 2010)

Target: RIBEYE(B)-MBP (rat, UniProt Q9EQH5-2 564-988)
Experiment: pull-down

Kd: 2.72 µM
B1: GST-tagged full-length bovine GCAP2 (amino acids 1–204) (natural protein, UniProt P51177 1-204, looked up)
chain: MGQQFSWEEAEENGAVGAADAAQLQEWYKKFLEECPSGTLFMHEFKRFFKVPDNEEATQYVEAMFRAFDTNGDNTIDFLEYVAALNLVLRGTLEHKLKWTFKIYDKDRNGCIDRQELLDIVESIYKLKKACSVEVEAEQQGKLLTPEEVVDRIFLLVDENGDGQLSLNEFVEGARRDKWVMKMLQMDLNPSSWISQQRRKSAMF
